The data set in a line: Perhydrolase activity of targeted hydrolases, ABTS assay. In kind it is biochemical. The method, then: The ABTS assay was performed as follows: hair samples treated as described above were transferred to new 2-mL microcentrifuge tubes (Eppendorf Protein LoBind; Eppendorf North America, Hauppauge, N.Y.) To each tube was added 480 μL of PAH buffer ([…]), 14 μL of 39% hydrogen peroxide (Sigma 3410), and 6 μL triacetin (Sigma-Aldrich W200700). The perhydrolase reaction was allowed to proceed for 10 minutes at room temperature (˜22-25° C.). The reaction was stopped by diluting aliquots 10×, 100× and 1000× with 10 mM phosphoric acid. For detection 50 μL of 1 M acetic acid, 50 μL of 40 mg/mL potassium iodide, and 50 μL of 4 mM ABTS (2,2′-azino-bis(3-ethylbenzthiazoline-6-sulphonic acid; Sigma, St Louis, Mo.) were added to 50 μL of the above dilutions. Color was allowed to develop for 10 minutes and read in a spectrophotometer at 405 nm. Values from no-enzyme controls were subtracted to yield values attributable only to enzyme activity. A standard curve of OD 405 nm vs PAA concentration in ppm yielded a conversion factor of 8.75, such that an OD 405 nm of 1.0 corresponded to approximately 8.75 ppm PAA. This value was then multiplied by the appropriate dilution to arrive at the PAA concentration in the perhydrolase reaction.
The perhydrolase activity of the enzymes targeted to hair with a variety of targeting domains produced as described in Example 32 was measured with the ABTS assay.

[1] abbreviates: 1 m Na acetate at pH 5.5 instead of triacetin.

B1: SEQ ID NO: 319: acetyl xylan esterase from Lactococcus lactis fused at its C-terminus to hair binding domain HC263 via a flexible linker (protein)
chain: MTKINNWQDYQGSSLKPEDFDKFWDEKINLVSNHQFEFELIEKNLSSKVVNFYHLWFTAIDGAKIHAQLIVPKNLKEKYPAILQFHGYHCDSGDWVDKIGIVAEGNVVLALDCRGQGGLSQDNIQTMGMTMKGLIVRGIDEGYENLYYVRQFMDLITATKILSEFDFVDETNISAQGASQGGALAVACAALSPLIKKVTATYPFLSDYRKAYELGAEESAFEELPYWFQFKDPLHLREDWFFNQLEYIDIQNLAPRIKAEVIWILGGKDTVVPPITQMAAYNKIQSKKSLYVLPEYGHEYLPKISDWLRENQGPGSGGAGSPGSAGGPGSPSAQSQLPDKHSGLHERAPQRYGPEPEPEPEPIPEPPKEAPVVIEKPKPKPKPKPKPPAHDHKNQKETHQRHAAGSGGGGSPHHHHHH
Regarding B1, under “triacetin at pH 7.5”, the Specific perhydrolase activity was determined as 99 µmol/mg/min.

B2: SEQ ID NO: 325: S54V variant of Mycobacterium smegmatis aryl esterase fused to hair binding domain HC263KtoR via a flexible linker (protein)
chain: MAKRILCFGDSLTWGWVPVEDGAPTERFAPDVRWTGVLAQQLGADFEVIEEGLVARTTNIDDPTDPRLNGASYLPSCLATHLPLDLVIIMLGTNDTKAYFRRTPLDIALGMSVLVTQVLTSAGGVGTTYPAPKVLVVSPPPLAPMPHPWFQLIFEGGEQKTTELARVYSALASFMKVPFFDAGSVISTDGVDGIHFTEANNRDLGVALAEQVRSLLGPGSGGAGSPGSAGGPGSPSAQSQLPDRHSGLHERAPQRYGPEPEPEPEPIPEPPREAPVVIERPRPRPRPRPRPPAHDHRNQRETHQRHAAGSGGGGSPHHHHHH
Regarding B2, the Specific perhydrolase activity (triacetin at pH 7.5) turned out to be 46 µmol/mg/min.

B3: SEQ ID NO: 337: L29P variant of Pseudomonas fluorescens hydrolase fused to the charged peptide (GK)5-His6 via a flexible linker (protein)
chain: MSTFVAKDGTQIYFKDWGSGKPVLFSHGWPLDADMWEYQMEYLSSRGYRTIAFDRRGFGRSDQPWTGNDYDTFADDIAQLIEHLDLKEVTLVGFSMGGGDVARYIARHGSARVAGLVLLGAVTPLFGQKPDYPQGVPLDVFARFKTELLKDRAQFISDFNAPFYGINKGQVVSQGVQTQTLQIALLASLKATVDCVTAFAETDFRPDMAKIDVPTLVIHGDGDQIVPFETTGKVAAELIKGAELKVYKDAPHGFAVTHAQQLNEDLLAFLKRGPGSGGAGSPGSAGGPGSGKGKGKGKGKHHHHHH
For the molecule B3, the Specific perhydrolase activity under setting [1] was determined as 2.65 µmol/mg/min.

B4: SEQ ID NO: 335: L29P variant of Pseudomonas fluorescens hydrolase fused to hair binding domain HC1010 via a flexible linker (protein)
chain: MSTFVAKDGTQIYFKDWGSGKPVLFSHGWPLDADMWEYQMEYLSSRGYRTIAFDRRGFGRSDQPWTGNDYDTFADDIAQLIEHLDLKEVTLVGFSMGGGDVARYIARHGSARVAGLVLLGAVTPLFGQKPDYPQGVPLDVFARFKTELLKDRAQFISDFNAPFYGINKGQVVSQGVQTQTLQIALLASLKATVDCVTAFAETDFRPDMAKIDVPTLVIHGDGDQIVPFETTGKVAAELIKGAELKVYKDAPHGFAVTHAQQLNEDLLAFLKRGPGSGGAGSPGSAGGPGSAQSQLPDKHSGLHERAPQRYGSGTAEIQSSKNPNPHPQRSWTNGSGHNHMQERYTDPQHSPSVNGLGSGHDHKNQKETHQRHAASSHHHHHH
Take B4: under setting [1], the Specific perhydrolase activity was determined as 1.5 µmol/mg/min.

B5: SEQ ID NO: 331: L29P variant of the hydrolase from Pseudomonas fluorescens fused to hair binding domain HC263 via a flexible linker (protein)
chain: MSTFVAKDGTQIYFKDWGSGKPVLFSHGWPLDADMWEYQMEYLSSRGYRTIAFDRRGFGRSDQPWTGNDYDTFADDIAQLIEHLDLKEVTLVGFSMGGGDVARYIARHGSARVAGLVLLGAVTPLFGQKPDYPQGVPLDVFARFKTELLKDRAQFISDFNAPFYGINKGQVVSQGVQTQTLQIALLASLKATVDCVTAFAETDFRPDMAKIDVPTLVIHGDGDQIVPFETTGKVAAELIKGAELKVYKDAPHGFAVTHAQQLNEDLLAFLKRGPGSGGAGSPGSAGGPGSPSAQSQLPDKHSGLHERAPQRYGPEPEPEPEPIPEPPKEAPVVIEKPKPKPKPKPKPPAHDHKNQKETHQRHAAGSGGGGSPHHHHHH
As to B5, the Specific perhydrolase activity under setting [1] was found to be 0.37 µmol/mg/min.

B6: SEQ ID NO: 333: L29P variant of Pseudomonas fluorescens hydrolase fused to hair binding domain HC263KtoR via a flexible linker (protein)
chain: MSTFVAKDGTQIYFKDWGSGKPVLFSHGWPLDADMWEYQMEYLSSRGYRTIAFDRRGFGRSDQPWTGNDYDTFADDIAQLIEHLDLKEVTLVGFSMGGGDVARYIARHGSARVAGLVLLGAVTPLFGQKPDYPQGVPLDVFARFKTELLKDRAQFISDFNAPFYGINKGQVVSQGVQTQTLQIALLASLKATVDCVTAFAETDFRPDMAKIDVPTLVIHGDGDQIVPFETTGKVAAELIKGAELKVYKDAPHGFAVTHAQQLNEDLLAFLKRGPGSGGAGSPGSAGGPGSPSAQSQLPDRHSGLHERAPQRYGPEPEPEPEPIPEPPREAPVVIERPRPRPRPRPRPPAHDHRNQRETHQRHAAGSGGGGSPHHHHHH
Molecule B6 returned a Specific perhydrolase activity under setting [1] of 1.45 µmol/mg/min.

B7: SEQ ID NO: 321: acetyl xylan esterase from Mesorhizobium loti fused at its C-terminus to hair binding domain HC263 via a flexible linker (protein)
chain: MPFPDLIQPELGAYVSSVGMPDDFAQFWTSTIAEARQAGGEVSIVQAQTTLKAVQSFDVTFPGYGGHPIKGWLILPTHHKGRLPLVVQYIGYGGGRGLAHEQLHWAASGFAYFRMDTRGQGSDWSVGETADPVGSTSSIPGFMTRGVLDKNDYYYRRLFTDAVRAIDALLGLDFVDPERIAVCGDSQGGGISLAVGGIDPRVKAVMPDVPFLCDFPRAVQTAVRDPYLEIVRFLAQHREKKAAVFETLNYFDCVNFARRSKAPALFSVALMDEVCPPSTVYGAFNAYAGEKTITEYEFNNHEGGQGYQERQQMTWLSRLFGVGGPGSGGAGSPGSAGGPGSPSAQSQLPDKHSGLHERAPQRYGPEPEPEPEPIPEPPKEAPVVIEKPKPKPKPKPKPPAHDHKNQKETHQRHAAGSGGGGSPHHHHHH
Turning to B7, the Specific perhydrolase activity (triacetin at pH 7.5) turned out to be 34 µmol/mg/min.

B8: SEQ ID NO: 317: acetyl xylan esterase from Bacillus pumilus fused at its C-terminus to hair binding domain HC263 via a flexible linker (protein)
chain: MQLFDLSLEELKKYKPKKTARPDFSDFWKKSLEELRQVEAEPTLESYDYPVKGVKVYRLTYQSFGHSKIEGFYAVPDQTGPHPALVRFHGYNASYDGGIHDIVNWALHGYATFGMLVRGQGGSEDTSVTPGGHALGWMTKGILSKDTYYYRGVYLDAVRALEVIQSFPEVDEHRIGVIGGSQGGALAIAAAALSDIPKVVVADYPYLSNFERAVDVALEQPYLEINSYFRRNSDPKVEEKAFETLSYFDLINLAGWVKQPTLMAIGLIDKITPPSTVFAAYNHLETDKDLKVYRYFGHEFIPAFQTEKLSFLQKHLLLSTGPGSGGAGSPGSAGGPGSPSAQSQLPDKHSGLHERAPQRYGPEPEPEPEPIPEPPKEAPVVIEKPKPKPKPKPKPPAHDHKNQKETHQRHAAGSGGGGSPHHHHHH
Take B8: the Specific perhydrolase activity (triacetin at pH 7.5) came out at 40 µmol/mg/min.

B9: SEQ ID NO: 327: S54V variant of Mycobacterium smegmatis aryl esterase fused to hair binding domain HC1010 via a flexible linker (protein)
chain: MAKRILCFGDSLTWGWVPVEDGAPTERFAPDVRWTGVLAQQLGADFEVIEEGLVARTTNIDDPTDPRLNGASYLPSCLATHLPLDLVIIMLGTNDTKAYFRRTPLDIALGMSVLVTQVLTSAGGVGTTYPAPKVLVVSPPPLAPMPHPWFQLIFEGGEQKTTELARVYSALASFMKVPFFDAGSVISTDGVDGIHFTEANNRDLGVALAEQVRSLLGPGSGGAGSPGSAGGPGSAQSQLPDKHSGLHERAPQRYGSGTAEIQSSKNPNPHPQRSWTNGSGHNHMQERYTDPQHSPSVNGLGSGHDHKNQKETHQRHAASSHHHHHH
B9 came in with a Specific perhydrolase activity (triacetin at pH 7.5) of 20 µmol/mg/min.

B10: SEQ ID NO: 329: S54V variant of Mycobacterium smegmatis aryl esterase fused to the charged peptide (GK)5-His6 via a flexible linker (protein)
chain: MAKRILCFGDSLTWGWVPVEDGAPTERFAPDVRWTGVLAQQLGADFEVIEEGLVARTTNIDDPTDPRLNGASYLPSCLATHLPLDLVIIMLGTNDTKAYFRRTPLDIALGMSVLVTQVLTSAGGVGTTYPAPKVLVVSPPPLAPMPHPWFQLIFEGGEQKTTELARVYSALASFMKVPFFDAGSVISTDGVDGIHFTEANNRDLGVALAEQVRSLLGPGSGGAGSPGSAGGPGSGKGKGKGKGKHHHHHH
B10: the Specific perhydrolase activity (triacetin at pH 7.5) was found to be 264 µmol/mg/min.

The record behind these values is patent publication US20130171217A1, “ENZYMATIC PERACID GENERATION FOR USE IN SKIN CARE PRODUCTS” (E I DU PONT DE NEMOURS AND COMPANY, priority 2010, published 2013).
